Assay results published in US20230346938A1 (Memorial Sloan Kettering, published 2023).
Substitutions are numbered along the chain they refer to.

T1: soluble CD19-HSA fusion protein (CD19 extracellular domains fused to human serum albumin) (human, UniProt P15391 20-291)
T1 construct: extracellular domain; also called recombinant CD19 antigen; not shown: human serum albumin
T1 sequence (looked up): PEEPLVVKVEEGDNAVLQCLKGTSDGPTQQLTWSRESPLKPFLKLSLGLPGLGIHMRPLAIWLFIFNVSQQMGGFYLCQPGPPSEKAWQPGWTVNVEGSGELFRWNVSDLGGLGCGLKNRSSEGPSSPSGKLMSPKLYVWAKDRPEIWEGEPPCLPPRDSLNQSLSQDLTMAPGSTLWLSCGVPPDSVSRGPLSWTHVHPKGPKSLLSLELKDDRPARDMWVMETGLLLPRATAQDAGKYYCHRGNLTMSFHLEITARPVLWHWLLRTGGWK

T2: CD19 endogenously expressed on Raji and NALM-6 cells (human, UniProt P15391 20-556)
T2 construct: whole, on cells; also called CD19 on NALM-6 cells; CD19 on Raji cells
T2 sequence (looked up): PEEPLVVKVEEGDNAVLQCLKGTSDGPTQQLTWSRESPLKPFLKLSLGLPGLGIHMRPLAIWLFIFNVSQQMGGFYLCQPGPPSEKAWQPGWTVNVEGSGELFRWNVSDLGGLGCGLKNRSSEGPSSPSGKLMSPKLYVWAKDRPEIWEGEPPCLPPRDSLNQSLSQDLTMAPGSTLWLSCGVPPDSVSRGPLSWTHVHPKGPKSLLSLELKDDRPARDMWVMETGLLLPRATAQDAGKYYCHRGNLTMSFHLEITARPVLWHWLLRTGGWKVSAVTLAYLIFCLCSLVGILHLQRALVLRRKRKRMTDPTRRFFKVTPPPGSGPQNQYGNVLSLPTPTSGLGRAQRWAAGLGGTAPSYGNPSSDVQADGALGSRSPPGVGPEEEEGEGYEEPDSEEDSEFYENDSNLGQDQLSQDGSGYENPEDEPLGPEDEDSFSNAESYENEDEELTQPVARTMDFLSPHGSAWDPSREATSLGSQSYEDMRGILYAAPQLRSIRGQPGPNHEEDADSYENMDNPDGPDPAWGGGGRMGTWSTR

B1: Antibody 6 (antibody, V domains shown)
VH: QVQLVESGGGVVQPGRSLRLSCAASGFTFSSYGMHWVRQAPGKGLEWVALIWYDGSNKYYADSVKGRFTISRDNSKNTLYLQMNSLRAEDTAVYYCAKPVEGLLRGFDYWGQGTLVTVSS
VL: EIVLTQSPGTLSLSPGERATLSCRASQSVRSSYLAWYQQKPGQAPRLLIYGASSRATGIPDRFSGSGSGTDFTLTISRLEPEDFAVYYCQQAGVPPLTFGGGTKVEIK
notes: Human IgG produced in Adimab yeast, purified on Protein A; Has the VH and VL of #6 scFv; also called CD19 Antibody 6
B2: Antibody 5 (antibody, V domains shown)
VH: B1 VH
VL: EIVLTQSPGTLSLSPGERATLSCRASQSVSSSYLAWYQQKPGQAPRLLIYGASSRATGIPDRFSGSGSGTDFTLTISRLEPEDFAVYYCQQAGGVPPLTFGGGTKVEIK
notes: Human IgG produced in Adimab yeast, purified on Protein A; Has the VH and VL of #5 scFv; also called CD19 Antibody 5
B3: Antibody 4 (antibody, V domains shown)
VH: B1 VH
VL: B2 VL with A92V, G93D, G94S, V95L, P96H, L98F
notes: Human IgG produced in Adimab yeast, purified on Protein A; Has the VH and VL of #4 scFv; also called CD19 Antibody 4
B4: Antibody 1 (antibody, V domains shown)
VH: B1 VH
VL: B1 VL with L4M, R30S, S54N, P95F, L97F
notes: Human IgG produced in Adimab yeast, purified on Protein A; Has the VH and VL of #1 scFv; also called CD19 Antibody 1
B5: Antibody 2 (antibody, V domains shown)
VH: B1 VH
VL: B1 VL with R30S, V94A, P95V, L97I
notes: Human IgG produced in Adimab yeast, purified on Protein A; also called CD19 Antibody 2
B6: Antibody 15 (antibody, V domains shown)
VH: B1 VH
VL: B1 VL with R30S, S54R, V94I, L97Y
notes: Human IgG produced in Adimab yeast, purified on Protein A; Has the VH and VL of #15 scFv; also called CD19 Antibody 15
B7: Antibody 7 (antibody, V domains shown)
VH: B1 VH
VL: B2 VL with L4M, L98F
notes: Human IgG produced in Adimab yeast, purified on Protein A; Has the VH and VL of #7 scFv; also called CD19 Antibody 7

Target: T1, soluble CD19-HSA fusion protein (CD19 …)
Assay: BLI (ForteBio Octet RED384), IgG on AHC sensors, 100 nM soluble CD19-HSA, 1:1 model

Binder | Kd | koff | kon
B1 | 6.4 nM | 0.000484 s⁻¹ | 75600 M⁻¹ s⁻¹
B2 | 10.4 nM | 0.000785 s⁻¹ | 75600 M⁻¹ s⁻¹
B3 | 9.27 nM | 0.000218 s⁻¹ | 23500 M⁻¹ s⁻¹
B4 | 32.9 nM | 0.00176 s⁻¹ | 53400 M⁻¹ s⁻¹
B5 | 9.01 nM | 0.000554 s⁻¹ | 61500 M⁻¹ s⁻¹
B6 | 20.8 nM | 0.00145 s⁻¹ | 69800 M⁻¹ s⁻¹
B7 | 14.9 nM | 0.00105 s⁻¹ | 70000 M⁻¹ s⁻¹

Target: T2, CD19 endogenously expressed on Raji and …
Assay: flow cytometry, serial dilution on NALM-6 cells

Binder | EC50
B1 | 0.18 nM
B2 | 0.219 nM
B3 | 0.519 nM
B4 | 0.588 nM
B5 | 0.314 nM
B6 | 0.27 nM
B7 | 0.21 nM
